From the RNAGym collection of RNA variant scans (doi:10.1073/pnas.2313332121) come the findings set out here.

The chains are these.
B1: TPR t1 (parent)
chain: GACCAAUCUGCCCUCAGAGCUCGAGAACAUCUUCGGAUGCAGAGGAGGCAGGCUUCGGUGGCGCGAUAGCGCCAACGUCCUCAACCUCCAAUGCAUCCCACCACAUGAUGAUGCCUGAAGAGCCUUGGUUUUUUG

The variants in the series derive from B1. Put plainly: polymerase ribozyme fitness, log enrichment relative to wild type (log ratio); higher = more active; in vitro selection for triplet polymerase activity. The procedure, abridged: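 A heterodimeric triplet polymerase ribozyme had each of its subunits mutagenized by PCR into a library, which was transcribed. One round of in vitro selection, done in triplicate, annealed each library with a biotinylated primer, its partner subunit and triplets, then incubated it frozen at −7 °C before gel excision of extended constructs, streptavidin-bead capture and RT-PCR. Fitness is the logarithm of genotype enrichment relative to wild-type enrichment, based on Illumina sequencing of inputs and outputs and inverse-variance-weighted replicate averages. A base-2 logarithm is used, and genotypes were kept only with ≥10 input reads and ≥1 read per output.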
With U33A C62U, the “polymerase ribozyme fitness (log ratio)” value was -5.03. For U32C G69A C76G G77C, the “polymerase ribozyme fitness (log ratio)” value was -4.8.

In the case of U32A G47C C53G C86A, the “polymerase ribozyme fitness (log ratio)” value is -6.08.

Consider U32C G36A C64A A111G, for which the “polymerase ribozyme fitness (log ratio)” value was -5.64. Turning to C34G A46G A91C, the “polymerase ribozyme fitness (log ratio)” value was -8.04. For U33C C56A the value was -4.11. For U32G A43U G69U A100C U109C G117U U130A the value was -7.2.

Take C34A G60C: the “polymerase ribozyme fitness (log ratio)” value is -3.4.

For the variant C31U A37G, the “polymerase ribozyme fitness (log ratio)” value is -3.78. U32A C101U: the “polymerase ribozyme fitness (log ratio)” value is -4.58. Take U33C G42C C99G A105G G113C U116A C123G C124A U132C: the “polymerase ribozyme fitness (log ratio)” value is -7.71. The same measure for U32A G44A U87C: -5.32; for U32C G71U G110A C123U U131G: -4.9; for C34A C53A G61C: -5.6. Consider C34A G71A, for which the “polymerase ribozyme fitness (log ratio)” value is -3.26. On to C34A G71C, for which the “polymerase ribozyme fitness (log ratio)” value was -4.06. The same measure for C34A G77C U78C: -2.16. Regarding C34A A50U G61U, the “polymerase ribozyme fitness (log ratio)” value was -3.7. The same measure for C34A C76U G120C: -3.22; for U32C G47A G51A: -4.87; for C34A C53U C98A: -1.98.

As for U32G C49A G117A, the “polymerase ribozyme fitness (log ratio)” value was -7.02. U32C G35U A108G A121G: the “polymerase ribozyme fitness (log ratio)” value was -7.39. For C31U G63C the value was -5.08; for C31U G63U, -3.29. The same measure for U33C U38A C49G A103C G113U G117A: -6.59; for U32C U116A: -3.4; for U32A C88A C89A A119G: -4.6. The same measure for U33C C124U: -3.97; for U32G: -6.71; for U32A: -3.82. Regarding U32C, the “polymerase ribozyme fitness (log ratio)” value worked out at 0.135. The same measure for C34A G47C C82U A91G G120U: -7.66. The same measure for C31U G63A C85U C124G: -4.75; for C34A G48U G93C: -4.96. The same measure for C31U U38A A68C C72U C76G U112A G117C: -6.6. With U32A C34A C64U C86G C114A U133C, the “polymerase ribozyme fitness (log ratio)” value is -5.96. With U33G A118G, the “polymerase ribozyme fitness (log ratio)” value is -5.59. As to C34A G44C G60U A121G, the “polymerase ribozyme fitness (log ratio)” value is -2.34. For C34A C73G the value was -2.27; for C31U G60A G71A U78G C101U G110U U125A, -6.74; for U33A G63U, -6.72.

For the variant C34A G110A, the “polymerase ribozyme fitness (log ratio)” value is -5.44. For C34A G61A C94A the value was -3.89.

Regarding U33C C101A A121U, the “polymerase ribozyme fitness (log ratio)” value is -4.76. For U33A C114U the value was -4.64. The same measure for U32C G63U G69A: -4.13; for C34A U54G C56A: -4.3; for C34A A50G G93A: -3.46. The same measure for U33C A121C: -2.95; for U33G G61U: -4.97. Take U32C C73U G117U: the “polymerase ribozyme fitness (log ratio)” value is -2.41. The same measure for U33G G48U A105C U126G G127C: -6.34; for U32A G61A C123G: -1.69. For C34A G58A C89U A121G the value was -2.92.

On to U33C G61U, for which the “polymerase ribozyme fitness (log ratio)” value is -3.04. In the case of U33C G61C, the “polymerase ribozyme fitness (log ratio)” value is -5.84. The same measure for U32C C72A: 0.0616; for U32C C72G: -0.273; for C34A U59A C70U: -5.58. Consider C34A A83C, for which the “polymerase ribozyme fitness (log ratio)” value was -3.65. For C34A G45C U59A C98G the value was -3.73; for C34A G63U G120A, -4.37; for C34A G58C G63U, -4.79. Turning to C34G A41C A100C A103C U112A, the “polymerase ribozyme fitness (log ratio)” value is -6.4. The same measure for U32C C104U: 0.382; for U32C G47A: -1.18. In the case of U32G C56G, the “polymerase ribozyme fitness (log ratio)” value was -6.87.

Consider U33G C72G C86A A91C, for which the “polymerase ribozyme fitness (log ratio)” value was -7.55. Consider C31U G61A C123G, for which the “polymerase ribozyme fitness (log ratio)” value is -3.22. As for U33G C104A A121C G135A, the “polymerase ribozyme fitness (log ratio)” value is -5.07. For U32G G35A C98A C99U U109A the value was -6.04; for C34A G45A C86A, -5.49.

On to U33G C82A, for which the “polymerase ribozyme fitness (log ratio)” value is -5.59. Take C34A C88U: the “polymerase ribozyme fitness (log ratio)” value is -2.2. The same measure for C34A U131A: -1.94; for U32C C73U A118G: -0.657. The same measure for U33A U116C: -6.14; for U33A C86U: -4.21; for C34A G45C C53A G60U C124A: -1.69.

Take C34A G39U C98A: the “polymerase ribozyme fitness (log ratio)” value is -3.78. The same measure for C31U G71U: -4.09; for U33A U112C G122C: -2.34. C31U G60A G61A C123G: the “polymerase ribozyme fitness (log ratio)” value is -6.05. In the case of C34A G36C G45C U112G, the “polymerase ribozyme fitness (log ratio)” value was -5.74.

In the case of C34A U59C U112G, the “polymerase ribozyme fitness (log ratio)” value was -4.39. Regarding C31U G47U C73A U112C G120C, the “polymerase ribozyme fitness (log ratio)” value is -5.43. For U32C A84U C123G U131C the value was 1.03; for U33A A84U C97U, -4.91.

As for U33A G52U G61C C115A, the “polymerase ribozyme fitness (log ratio)” value is -4.91. For U32A C114G, the “polymerase ribozyme fitness (log ratio)” value was -4.17. The same measure for U32C C40G G45A G47A U54A G61U C88G G110C A111G G117A U125A: -7.2; for C34A A50U G71C C123G: -4.86. The same measure for U32C C82G U87A: -2.42; for U32C C56U G60A C88A: -5.77.

In the case of U33G C79G, the “polymerase ribozyme fitness (log ratio)” value is -6.57. The same measure for U33G C64A G71U U112A: -7.32; for U33G A37U C49A C115U U131G: -6.12; for U32C G57U: -0.164. For U33A C89A G117U the value was -5.96. The same measure for U33G C34G G52U: -6.73; for U32C A46U: -1.51; for C34A U112G U130A U133A: -3.74. Turning to U33A C89G A103U U112A G113U, the “polymerase ribozyme fitness (log ratio)” value was -5.8. For U32A G45A A75U C88U U96C the value was -5.82. For C31U C73G the value was -4.48. For C34A G60C C97A C115G the value was -5.15; for U33A G57U, -4.65.

For the variant C34G A43G C53A A111C C123G, the “polymerase ribozyme fitness (log ratio)” value is -6.97. Take C31U G36U G61U C82A A111U: the “polymerase ribozyme fitness (log ratio)” value was -5.16.

As for C34A G110U A118U, the “polymerase ribozyme fitness (log ratio)” value is -6.14.

In the case of C31U C73G C89U, the “polymerase ribozyme fitness (log ratio)” value is -5.24. For the variant U33A C97U, the “polymerase ribozyme fitness (log ratio)” value was -5.53. The same measure for U32C G48U C101U A118G: -3.71; for U32A G58C C94U: -3.96; for U32G A50G G69U C88G A121C: -3.17. The same measure for U32G G35U C40U C86U A121U: -5.02; for U32C C56A: -1.29; for C31U G48A: -5.2. In the case of C34A C56A U78C C104U, the “polymerase ribozyme fitness (log ratio)” value is -2.07. In the case of U33G G36C, the “polymerase ribozyme fitness (log ratio)” value was -7.66. The same measure for C34A G63A: -4.65; for U32C C62A: -1.92. The same measure for C31U C53G: -3.58. The same measure for U33A A90C: -6.85.

For U33C G63U A111U A121C C124A, the “polymerase ribozyme fitness (log ratio)” value was -6.83. In the case of U32C G93U, the “polymerase ribozyme fitness (log ratio)” value was -0.79. The same measure for U32G C70A G117A: -5.24. For U32C G42A C56U C115U the value was -1.93; for C34A G47U G61A C86U U130A, -3.42; for U33G C49G C53G G61U, -7.57. For the variant C34A A37U C82G, the “polymerase ribozyme fitness (log ratio)” value is -4.35. The same measure for U32C G48A G52U C114A: -4.17; for U32A G45C U54A G61U: -3.78; for U32C G52U U81G: -4.15. For C34A G120C the value was -1.97; for C34A G57A C72U G93A, -5.18. For C34G A50G the value was -6.59. Regarding C34A G45C C53A G60U, the “polymerase ribozyme fitness (log ratio)” value is -1.66. For C34A C73U A74U the value was -3.25. For C34A U78A the value was -3.26; for C34A C70G C72G C82G, -6.51; for U32C G47U G48U G113C, -3.38.

With C34A C49G C62G A121G, the “polymerase ribozyme fitness (log ratio)” value was -5.41.

For U33G G36A A111U, the “polymerase ribozyme fitness (log ratio)” value is -7.33. For U32G G60A the value was -7.06; for U33C A46G C88U A121U, -6.28; for C31U C53U C72U A103U, -6.73. For C34A U87A the value was -3.34; for U32G G122A, -7.09; for U32C C49U, -0.805. Take U32G U59C U112A G122U: the “polymerase ribozyme fitness (log ratio)” value was -6.09. The same measure for U33A C49U C73U: -5.84. The same measure for U32C C124G G135U: 0.917; for U32A G58A C94A: -5.83; for C31U A46G C49A G60A A105C G110A: -5.83. For the variant C31U C104U, the “polymerase ribozyme fitness (log ratio)” value is -4.18. The same measure for U33G G63C U112G U129A: -7.08. For U32C G47U G48U C104G G117U G127C the value was -6.32; for U33A G48C, -5.1; for U32C U81A A90G U112A G113A, -1.38. For C31U C40U G61U G120A, the “polymerase ribozyme fitness (log ratio)” value was -4.29. Turning to U33C G120U, the “polymerase ribozyme fitness (log ratio)” value is -4.63. The same measure for U33A A37U U55C A100C: -6.04; for U32A U112A: -2.37. For U32C G60C A75C C79G A118U G135U the value was -2.26. For U33C U133G the value was -5.56.
